In US20210395344A1:

Legend:
[1] = target: SARS-CoV-2 Spike Glycoprotein S1 (subunit 1) (SARS-CoV-2) (UniProt P0DTC2); experiment: epitope binning; competitor 1-16
[2] = target: SARS-CoV-2 Spike Glycoprotein S1 (subunit 1) (SARS-CoV-2) (UniProt P0DTC2); experiment: epitope binning; competitor Abcam CR3022
[3] = target: SARS-CoV-2 Spike Glycoprotein S1 (subunit 1) (SARS-CoV-2) (UniProt P0DTC2); experiment: epitope binning; competitor 2-5
[4] = target: SARS-CoV-2 Spike Glycoprotein S1 (subunit 1) (SARS-CoV-2) (UniProt P0DTC2); experiment: epitope binning; competitor 2-6
[5] = target: SARS-CoV-2 Spike Glycoprotein S1 (subunit 1) (SARS-CoV-2) (UniProt P0DTC2); experiment: epitope binning; competitor 2-11
[6] = target: SARS-CoV-2 Spike Glycoprotein S1 (subunit 1) (SARS-CoV-2) (UniProt P0DTC2); experiment: epitope binning; competitor 2-8
[7] = target: SARS-CoV-2 Spike Glycoprotein S1 (subunit 1) (SARS-CoV-2) (UniProt P0DTC2); experiment: epitope binning; competitor 1-35
[8] = target: SARS-CoV-2 Spike Glycoprotein S1 (subunit 1) (SARS-CoV-2) (UniProt P0DTC2); experiment: epitope binning; competitor Acro mAb
[9] = target: SARS-CoV-2 Spike Glycoprotein S1 (subunit 1) (SARS-CoV-2) (UniProt P0DTC2); experiment: epitope binning; competitor 2-2
[10] = target: SARS-CoV-2 Spike Glycoprotein S1 (subunit 1) (SARS-CoV-2) (UniProt P0DTC2); experiment: epitope binning; competitor 1-32

Abcam CR3022 (antibody)
epitope binning score [1]: 2
epitope binning score [2]: 0
epitope binning score [3]: 0
epitope binning score [4]: 2
epitope binning score [5]: 1
epitope binning score [6]: 0
epitope binning score [7]: 2
epitope binning score [8]: 2
epitope binning score [9]: 0
epitope binning score [10]: 1
